Source: article PMC3393660, “Structural Interaction and Functional Regulation of Polycystin-2 by Filamin” (PLoS ONE, 2012)

How the values were obtained:
[1] = target: T1, His-FLNBC (human, UniProt O75369 2105-2602); assay: pull-down; pre-cleared E. coli extracts (250 µl) with GST-PC2N or GST-PC2C incubated with purified His-FLN C-terminus (2 µg); 150 mM NaCl, 1.0 mM CaCl2, 50 mM Tris pH 7.5, room temperature; glutathione-agarose beads; immunoblot with anti-His; details: one partner purified
T1 construct: Filamin-B, human, C-terminus aa 2105-2602; also called His-tagged FLNBC; not shown: His tag, N-terminal, kept
T1 sequence (looked up): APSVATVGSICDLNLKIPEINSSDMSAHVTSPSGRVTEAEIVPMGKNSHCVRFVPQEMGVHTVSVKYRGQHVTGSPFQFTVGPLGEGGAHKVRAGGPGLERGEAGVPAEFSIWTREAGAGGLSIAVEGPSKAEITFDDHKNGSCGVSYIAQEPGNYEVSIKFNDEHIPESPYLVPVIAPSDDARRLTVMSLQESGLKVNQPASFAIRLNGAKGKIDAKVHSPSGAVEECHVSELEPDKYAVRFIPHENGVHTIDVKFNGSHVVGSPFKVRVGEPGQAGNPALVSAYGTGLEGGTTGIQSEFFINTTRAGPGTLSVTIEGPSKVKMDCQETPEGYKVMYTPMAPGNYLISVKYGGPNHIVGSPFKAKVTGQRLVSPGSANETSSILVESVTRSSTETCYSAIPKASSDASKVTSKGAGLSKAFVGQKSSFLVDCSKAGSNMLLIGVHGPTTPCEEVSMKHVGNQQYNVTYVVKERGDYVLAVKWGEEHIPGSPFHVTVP

[2] = target: T2, His-FLNCC (human, UniProt Q14315 2144-2725); assay: as above; details: one partner purified
T2 construct: Filamin-C, human, C-terminus aa A2144-P2725; also called His-tagged FLNCC; not shown: His tag, N-terminal, kept
T2 sequence (looked up): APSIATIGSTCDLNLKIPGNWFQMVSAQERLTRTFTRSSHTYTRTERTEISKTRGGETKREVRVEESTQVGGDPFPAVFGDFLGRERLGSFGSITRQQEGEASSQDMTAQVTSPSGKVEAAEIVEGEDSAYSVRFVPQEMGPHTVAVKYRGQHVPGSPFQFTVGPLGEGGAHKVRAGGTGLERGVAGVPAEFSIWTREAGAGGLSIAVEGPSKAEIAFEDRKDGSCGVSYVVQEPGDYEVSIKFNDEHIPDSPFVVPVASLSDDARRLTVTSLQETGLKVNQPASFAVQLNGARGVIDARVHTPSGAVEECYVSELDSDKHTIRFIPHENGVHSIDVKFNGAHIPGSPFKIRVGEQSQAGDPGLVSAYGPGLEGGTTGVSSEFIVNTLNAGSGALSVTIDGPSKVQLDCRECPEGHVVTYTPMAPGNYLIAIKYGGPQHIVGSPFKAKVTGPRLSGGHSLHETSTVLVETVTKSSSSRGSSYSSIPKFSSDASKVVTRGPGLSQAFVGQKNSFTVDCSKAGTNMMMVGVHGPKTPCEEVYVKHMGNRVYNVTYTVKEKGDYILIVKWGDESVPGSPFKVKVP

[3] = target: T3, His-FLNAC (human, UniProt P21333 2150-2647); assay: as above; details: one partner purified
T3 construct: Filamin-A, human, C-terminus aa 2150-2647; also called His-tagged FLNAC; not shown: His tag, N-terminal, kept
T3 sequence (looked up): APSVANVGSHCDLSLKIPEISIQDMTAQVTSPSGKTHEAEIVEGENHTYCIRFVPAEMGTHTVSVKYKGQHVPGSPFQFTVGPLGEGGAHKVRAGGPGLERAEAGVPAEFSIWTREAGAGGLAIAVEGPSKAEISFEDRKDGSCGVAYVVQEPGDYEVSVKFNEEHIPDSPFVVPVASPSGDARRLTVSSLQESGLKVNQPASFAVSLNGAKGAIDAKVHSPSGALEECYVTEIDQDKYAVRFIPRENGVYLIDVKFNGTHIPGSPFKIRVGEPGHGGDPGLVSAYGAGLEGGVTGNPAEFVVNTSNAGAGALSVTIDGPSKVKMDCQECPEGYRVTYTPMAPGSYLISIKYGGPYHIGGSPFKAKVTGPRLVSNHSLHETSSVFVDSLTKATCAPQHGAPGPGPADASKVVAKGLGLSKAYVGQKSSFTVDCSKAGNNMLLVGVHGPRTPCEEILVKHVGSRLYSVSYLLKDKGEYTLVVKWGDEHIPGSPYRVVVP

[4] = target: T3, His-FLNAC; assay: pull-down; purified GST fusion protein (2 µg) incubated with purified His-FLN C-terminus (2 µg); 150 mM NaCl, 1.0 mM CaCl2, 50 mM Tris pH 7.5, room temperature; glutathione-agarose beads; immunoblot with anti-His; details: both partners purified

Measured: binding result

B1: GST-PC2C (domain or fragment, human, UniProt Q13563 682-968, looked up)
chain: DTYSEVKSDLAQQKAEMELSDLIRKGYHKALVKLKLKKNTVDDISESLRQGGGKLNFDELRQDLKGKGHTDAEIEAIFTKYDQDGDQELTEHEHQQMRDDLEKEREDLDLDHSSLPRPMSSRSFPRSLDDSEEDDDEDSGHSSRRRGSISSGVSYEEFQVLVRRVDRMEHSIGSIVSKIDAVIVKLEIMERAKLKRREVLGRLLDGVAEDERLGRDSEIHREQMERLVREELERWESDDAASQISHGLGTPVGLNGQPRPRSSRPSSSQSTEGMEGAGGNGSSNVHV
notes: Polycystin-2, human, C-terminus PC2C, amino acids 682-968; in pGEX5X; also called GST-tagged PC2C; source: E. coli BL21 (DE3), in lysate; also purified (commercial GST purification kit)
binds: [1] | [2] | [3]

B2: GST-PC2N (domain or fragment, human, UniProt Q13563 1-215, looked up)
chain: MVNSSRVQPQQPGDAKRPPAPRAPDPGRLMAGCAAVGASLAAPGGLCEQRGLEIEMQRIRQAAARDPPAGAAASPSPPLSSCSRQAWSRDNPGFEAEEEEEEVEGEEGGMVVEMDVEWRPGSRRSAASSAVSSVGARSRGLGGYHGAGHPSGRRRRREDQGPPCPSPVGGGDPLHRHLPLEGQPPRVAWAERLVRGLRGLWGTRLMEESSTNREK
notes: Polycystin-2, human, N-terminus PC2N, amino acids 1-215; in pGEX5X; also called GST-tagged PC2N; source: E. coli BL21 (DE3), in lysate; also purified (commercial GST purification kit)
binds: [4] | [1] | [2]
